Usually IC50 stands for the concentration that inhibits the measured activity by half. Low readings indicate greater potency, high ones weaker potency.

Assay [1] has as its target T1, human GIP receptor (human, UniProt P48546 22-466).
T1 construct: whole, on cells; also called hGIPR
T1 sequence (looked up): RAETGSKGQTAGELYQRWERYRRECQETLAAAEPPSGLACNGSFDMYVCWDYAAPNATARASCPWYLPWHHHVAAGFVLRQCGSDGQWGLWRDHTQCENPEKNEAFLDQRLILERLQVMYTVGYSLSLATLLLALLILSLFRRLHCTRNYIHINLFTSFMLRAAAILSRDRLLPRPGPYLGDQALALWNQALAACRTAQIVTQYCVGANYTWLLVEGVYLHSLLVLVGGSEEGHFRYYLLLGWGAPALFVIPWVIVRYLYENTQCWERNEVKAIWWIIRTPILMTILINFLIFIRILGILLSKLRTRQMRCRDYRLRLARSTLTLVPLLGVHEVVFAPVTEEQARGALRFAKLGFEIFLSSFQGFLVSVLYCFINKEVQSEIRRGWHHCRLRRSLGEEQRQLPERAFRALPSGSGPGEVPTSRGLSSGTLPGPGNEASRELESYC
The assay can be described thus: IC50 with 2% HSA over IC50 with 0.1% casein, 125I-hGIP competition, COS-7/hGIPR.
Protocol: (§1) After incubation, the cells were washed twice in ice-cold binding buffer (+/−2% HSA) and lysed using 200 mM NaOH with 1% SDS for 30 min. Nonspecific binding was determined as the binding of radioactive ligand to untransfected cells.

Assay [2] concerns the target T1, human GIP receptor. The assay can be described thus: 125I-hGIP competition binding, COS-7 cells expressing hGIPR.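 Also: nonspecific binding taken as radioligand bound by untransfected cells, binding buffer with or without 2% HSA.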
Protocol: as §1
Assay [3] addresses T1, human GIP receptor. Nature of the assay: 125I-hGIP competition binding, COS-7/hGIPR, 0.1% casein.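 Also: nonspecific binding defined as radioligand binding measured on untransfected cells.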
Protocol: as §1
Assay [4] deals with T1, human GIP receptor. The assay can be described thus: 125I-hGIP competition binding, COS-7/hGIPR, 2% HSA.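 Also: nonspecific binding defined as radioligand binding to untransfected cells.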
Protocol: as §1
Assay [5] concerns the target T1, human GIP receptor. The assay can be described thus: cell-based or functional assay.

Ends that are not written are not given here. * marks the point of attachment. Palmitoyl = CCCCCCCCCCCCCCCC(=O)*; Myristoyl = CCCCCCCCCCCCCC(=O)*; Lauroyl = CCCCCCCCCCCC(=O)*

B1: AT117 [hGIP(3-30)NH2[H18K]-C16/18] (peptide)
peptide: EGTFISDYSIAMDKIK(Palmitoyl)QQDFVNWLLAQK-NH2
modifications: N-terminus assumed
SMILES: CCCCCCCCCCCCCCCC(=O)NCCCC[C@H](NC(=O)[C@@H](NC(=O)[C@H](CCCCN)NC(=O)[C@H](CC(=O)O)NC(=O)[C@H](CCSC)NC(=O)[C@H](C)NC(=O)[C@@H](NC(=O)[C@H](CO)NC(=O)[C@H](Cc1ccc(O)cc1)NC(=O)[C@H](CC(=O)O)NC(=O)[C@H](CO)NC(=O)[C@@H](NC(=O)[C@H](Cc1ccccc1)NC(=O)[C@@H](NC(=O)CNC(=O)[C@@H](N)CCC(=O)O)[C@@H](C)O)[C@@H](C)CC)[C@@H](C)CC)[C@@H](C)CC)C(=O)N[C@@H](CCC(N)=O)C(=O)N[C@@H](CCC(N)=O)C(=O)N[C@@H](CC(=O)O)C(=O)N[C@@H](Cc1ccccc1)C(=O)N[C@H](C(=O)N[C@@H](CC(N)=O)C(=O)N[C@@H](Cc1c[nH]c2ccccc12)C(=O)N[C@@H](CC(C)C)C(=O)N[C@@H](CC(C)C)C(=O)N[C@@H](C)C(=O)N[C@@H](CCC(N)=O)C(=O)N[C@@H](CCCCN)C(N)=O)C(C)C
With B1, the “Fold change HSA (2%)/Casein (0.1%)” value in the assay with human GIP receptor [1] turned out to be 15.7 fold. Also, in the assay with human GIP receptor [2], the IC50 was found to be 292 nM and the “log IC50” value was -6.5 log M. In the assay with human GIP receptor [3], the half-inhibitory concentration (IC50) came to 110 nM and the logIC50 was -7 log M. In the assay with human GIP receptor [4], this molecule displayed an IC50 of 1730 nM and a logIC50 of -5.8 log M.

B2: AT119 [hGIP(5-30)NH2-C12/16] (peptide)
peptide: TFISDYSIAMDK(Lauroyl)IHQQDFVNWLLAQK-NH2
modifications: N-terminus assumed
SMILES: CCCCCCCCCCCC(=O)NCCCC[C@H](NC(=O)[C@H](CC(=O)O)NC(=O)[C@H](CCSC)NC(=O)[C@H](C)NC(=O)[C@@H](NC(=O)[C@H](CO)NC(=O)[C@H](Cc1ccc(O)cc1)NC(=O)[C@H](CC(=O)O)NC(=O)[C@H](CO)NC(=O)[C@@H](NC(=O)[C@H](Cc1ccccc1)NC(=O)[C@@H](N)[C@@H](C)O)[C@@H](C)CC)[C@@H](C)CC)C(=O)N[C@H](C(=O)N[C@@H](Cc1c[nH]cn1)C(=O)N[C@@H](CCC(N)=O)C(=O)N[C@@H](CCC(N)=O)C(=O)N[C@@H](CC(=O)O)C(=O)N[C@@H](Cc1ccccc1)C(=O)N[C@H](C(=O)N[C@@H](CC(N)=O)C(=O)N[C@@H](Cc1c[nH]c2ccccc12)C(=O)N[C@@H](CC(C)C)C(=O)N[C@@H](CC(C)C)C(=O)N[C@@H](C)C(=O)N[C@@H](CCC(N)=O)C(=O)N[C@@H](CCCCN)C(N)=O)C(C)C)[C@@H](C)CC
Regarding B2, the “Fold change HSA (2%)/Casein (0.1%)” value with human GIP receptor [1] worked out at 7.2 fold. Besides, in the assay with human GIP receptor [2], the IC50 was 194 nM and the “log IC50” value is -6.7 log M. Further, in the assay with human GIP receptor [3], the half-maximal inhibitory concentration (IC50) worked out at 369 nM and the logIC50 is -6.4 log M. In the assay with human GIP receptor [4], this molecule yielded an IC50 of 2660 nM and a logIC50 of -5.6 log M.
Turning to TKISDYSIAMDKIHQQDFVNWLLAQK (C16-diacid fatty acyl on Lys 6 (GIP numbering); C-terminal amide) [AT168 [hGIP(5-30)NH2[F6K]-C16diacid/6]], in the assay with human GIP receptor [1], the “Fold change HSA (2%)/Casein (0.1%)” value amounted to 2 fold. For the same molecule, in the assay with human GIP receptor [2], the concentration for half-maximal inhibition (IC50) was 48 nM and the “log IC50” value was -7.3 log M. Further, in the assay with human GIP receptor [3], the IC50 was found to be 50.1 nM and the logIC50 was -7.3 log M. In the assay with human GIP receptor [5], the “cAMP agonism, Emax” value was determined as 0; the “cAMP antagonism” value stood at 96 nM; the “cAMP antagonism, log” value was -7 log M. In the assay with human GIP receptor [4], the IC50 was determined as 100 nM and the logIC50 is -7 log M.

B3: AT124 [hGIP(5-30)NH2-C16/5] (peptide)
peptide: Palmitoyl-TFISDYSIAMDKIHQQDFVNWLLAQK-NH2
SMILES: CCCCCCCCCCCCCCCC(=O)N[C@H](C(=O)N[C@@H](Cc1ccccc1)C(=O)N[C@H](C(=O)N[C@@H](CO)C(=O)N[C@@H](CC(=O)O)C(=O)N[C@@H](Cc1ccc(O)cc1)C(=O)N[C@@H](CO)C(=O)N[C@H](C(=O)N[C@@H](C)C(=O)N[C@@H](CCSC)C(=O)N[C@@H](CC(=O)O)C(=O)N[C@@H](CCCCN)C(=O)N[C@H](C(=O)N[C@@H](Cc1c[nH]cn1)C(=O)N[C@@H](CCC(N)=O)C(=O)N[C@@H](CCC(N)=O)C(=O)N[C@@H](CC(=O)O)C(=O)N[C@@H](Cc1ccccc1)C(=O)N[C@H](C(=O)N[C@@H](CC(N)=O)C(=O)N[C@@H](Cc1c[nH]c2ccccc12)C(=O)N[C@@H](CC(C)C)C(=O)N[C@@H](CC(C)C)C(=O)N[C@@H](C)C(=O)N[C@@H](CCC(N)=O)C(=O)N[C@@H](CCCCN)C(N)=O)C(C)C)[C@@H](C)CC)[C@@H](C)CC)[C@@H](C)CC)[C@@H](C)O
For the molecule B3, the “Fold change HSA (2%)/Casein (0.1%)” value in the assay with human GIP receptor [1] was 5.2 fold. Moreover, in the assay with human GIP receptor [2], the 50% inhibitory concentration (IC50) is 361 nM and the “log IC50” value was -6.4 log M. In the assay with human GIP receptor [3], this molecule showed an IC50 of 1590 nM and a logIC50 of -5.8 log M. In the assay with human GIP receptor [4], this molecule gave an IC50 of 8240 nM and a logIC50 of -5.1 log M.

B4: AT121 [hGIP(5-30)NH2-C14/5] (peptide)
peptide: Myristoyl-TFISDYSIAMDKIHQQDFVNWLLAQK-NH2
SMILES: CCCCCCCCCCCCCC(=O)N[C@H](C(=O)N[C@@H](Cc1ccccc1)C(=O)N[C@H](C(=O)N[C@@H](CO)C(=O)N[C@@H](CC(=O)O)C(=O)N[C@@H](Cc1ccc(O)cc1)C(=O)N[C@@H](CO)C(=O)N[C@H](C(=O)N[C@@H](C)C(=O)N[C@@H](CCSC)C(=O)N[C@@H](CC(=O)O)C(=O)N[C@@H](CCCCN)C(=O)N[C@H](C(=O)N[C@@H](Cc1c[nH]cn1)C(=O)N[C@@H](CCC(N)=O)C(=O)N[C@@H](CCC(N)=O)C(=O)N[C@@H](CC(=O)O)C(=O)N[C@@H](Cc1ccccc1)C(=O)N[C@H](C(=O)N[C@@H](CC(N)=O)C(=O)N[C@@H](Cc1c[nH]c2ccccc12)C(=O)N[C@@H](CC(C)C)C(=O)N[C@@H](CC(C)C)C(=O)N[C@@H](C)C(=O)N[C@@H](CCC(N)=O)C(=O)N[C@@H](CCCCN)C(N)=O)C(C)C)[C@@H](C)CC)[C@@H](C)CC)[C@@H](C)CC)[C@@H](C)O
On to B4, for which the “Fold change HSA (2%)/Casein (0.1%)” value with human GIP receptor [1] turned out to be 5.7 fold. For the same molecule, the IC50 in the assay with human GIP receptor [2] was 173 nM; with human GIP receptor [3], 170 nM; in the assay with human GIP receptor [4] it was 966 nM. Besides, the “log IC50” value in the assay with human GIP receptor [2] was -6.8 log M. In addition, the results for the logIC50 with human GIP receptor [3] and with human GIP receptor [4] were -6.8 log M and -6 log M, respectively.

B5: AT122 [hGIP(5-30)NH2-C14/16] (peptide)
peptide: TFISDYSIAMDK(Myristoyl)IHQQDFVNWLLAQK-NH2
modifications: N-terminus assumed
SMILES: CCCCCCCCCCCCCC(=O)NCCCC[C@H](NC(=O)[C@H](CC(=O)O)NC(=O)[C@H](CCSC)NC(=O)[C@H](C)NC(=O)[C@@H](NC(=O)[C@H](CO)NC(=O)[C@H](Cc1ccc(O)cc1)NC(=O)[C@H](CC(=O)O)NC(=O)[C@H](CO)NC(=O)[C@@H](NC(=O)[C@H](Cc1ccccc1)NC(=O)[C@@H](N)[C@@H](C)O)[C@@H](C)CC)[C@@H](C)CC)C(=O)N[C@H](C(=O)N[C@@H](Cc1c[nH]cn1)C(=O)N[C@@H](CCC(N)=O)C(=O)N[C@@H](CCC(N)=O)C(=O)N[C@@H](CC(=O)O)C(=O)N[C@@H](Cc1ccccc1)C(=O)N[C@H](C(=O)N[C@@H](CC(N)=O)C(=O)N[C@@H](Cc1c[nH]c2ccccc12)C(=O)N[C@@H](CC(C)C)C(=O)N[C@@H](CC(C)C)C(=O)N[C@@H](C)C(=O)N[C@@H](CCC(N)=O)C(=O)N[C@@H](CCCCN)C(N)=O)C(C)C)[C@@H](C)CC
B5: the “Fold change HSA (2%)/Casein (0.1%)” value with human GIP receptor [1] came to 4.9 fold. In the assay with human GIP receptor [2], the IC50 is 591 nM and the “log IC50” value is -6.2 log M. In the assay with human GIP receptor [3], this molecule had a 50% inhibitory concentration (IC50) of 1230 nM and a logIC50 of -5.9 log M. Further, in the assay with human GIP receptor [4], the IC50 is 6080 nM and the logIC50 is -5.2 log M.
